Measured values taken from patent US20170056486A1 (IMMATICS BIOTECHNOLOGIES, published 2017).

How the values were obtained:
HLA-A*02 [1] = biological target: T1, HLA-A*02 (human); experiment: UV-exchange ELISA (anti-b2m); yield >=75%
T1 construct: Peptide-receptive MHC monomer made by UV cleavage of a UV-sensitive ligand and captured on streptavidin plates; also called HLA-A*02 MHC class I molecule; peptide-receptive MHC
Source text: (§1) Candidate peptides for T cell based therapies according to the present invention were further tested for their MHC binding capacity (affinity). The individual peptide-MHC complexes were produced by UV-ligand exchange, where a UV-sensitive peptide is cleaved upon UV-irradiation, and exchanged with the peptide of interest as analyzed. Only peptide candidates that can effectively bind and stabilize the peptide-receptive MHC molecules prevent dissociation of the MHC complexes. To determine the yield of the exchange reaction, an ELISA was performed based on the detection of the light chain (β2m) of stabilized MHC complexes. The assay was performed as generally described in Rodenko et al. (Rodenko et al., 2006).
(§2) 96 well MAXISorp plates (NUNC) were coated over night with 2 ug/ml streptavidin in PBS at room temperature, washed 4× and blocked for 1 h at 37° C. in 2% BSA containing blocking buffer. […] Peptide-MHC monomers of the UV-exchange reaction were diluted 100 fold in blocking buffer. Samples were incubated for 1 h at 37° C., washed four times, incubated with 2 ug/ml HRP conjugated anti-β2m for 1 h at 37° C., washed again and detected with TMB solution that is stopped with […]. Absorption was measured at 450 nm.

HLA-A*02 [2] = biological target: T1, HLA-A*02; experiment: UV-exchange ELISA (anti-b2m); yield <20%
Source text: as §1, §2

HLA-A*02:01 = biological target: T2, HLA-A*02:01 (human); experiment: biotinylated peptide-MHC complex used as negative control in T-cell priming
T2 construct: MHC class I molecule without the peptide
Description: 800.000 beads/200 μl were coated in 96-well plates in the presence of 4×12.5 ng different biotin-pMHC, washed and 600 ng biotin anti-CD28 were added subsequently in a volume of 200 μl. Stimulations were initiated in 96-well plates by co-incubating 1×10⁶ CD8+ T cells with 2×10⁵ washed coated beads in 200 μl TCM supplemented with 5 ng/ml IL-12 (PromoCell) for 3 days at 37° C. Half of the medium was then exchanged by fresh TCM supplemented with 80 U/ml IL-2 and incubating was continued for 4 days at 37° C. This stimulation cycle was performed for a total of three times. For the pMHC multimer readout using 8 different pMHC molecules per condition, a two-dimensional combinatorial coding approach was used as previously described (Andersen et al., 2012) with minor modifications encompassing coupling to 5 different fluorochromes. […] For analysis, a BD LSRII SORP cytometer equipped with appropriate lasers and filters was used. Peptide specific cells were calculated as percentage of total CD8+ cells. Evaluation of multimeric analysis was done using the FlowJo software (Tree Star, Oregon, USA). In vitro priming of specific multimer+ CD8+ lymphocytes was detected by comparing to negative control stimulations.

Row | peptide exchange yield (HLA-A*02 [1]) | peptide exchange yield (HLA-A*02 [2]) | Binder | other results
1 | ≥ 75% |  | KLYGIEIEV | 
2 |  | < 20% | AQTVVVIKA | 
3 |  |  | YLLPAIVHI (negative control peptide of the T-cell stimulations; also called 419) [DDX5-001 (YLLPAIVHI from DDX5)] | binding result (HLA-A*02:01): binds
4 | ≥ 75% |  | AIFDFCPSV | 
5 |  | < 20% | TLSSERDFAL | 
6 |  | < 20% | GAVAEEVLSSI | 
7 |  | < 20% | SSLEPQIQPV | 
8 | ≥ 75% |  | ALSDETKNNWEV | 
9 | ≥ 75% |  | SLVPLQILL | 
